B1: Speckle-type POZ protein (Homo sapiens), O43791 (parent)
chain: MSRVPSPPPPAEMSSGPVAESWCYTQIKVVKFSYMWTINNFSFCREEMGEVIKSSTFSSGANDKLKWCLRVNPKGLDEESKDYLSLYLLLVSCPKSEVRAKFKFSILNAKGEETKAMESQRAYRFVQGKDWGFKKFIRRDFLLDEANGLLPDDKLTLFCEVSVVQDSVNISGQNTMNMVKVPECRLADELGGLWENSRFTDCCLCVAGQEFQAHKAILAARSPVFSAMFEHEMEESKKNRVEINDVEPEVFKEMMCFIYTGKAPNLDKMADDLLAAADKYALERLKVMCEDALCSNLSVENAAEILILADLHSADQLKTQAVDFINYHASDVLETSGWKSMVVSHPHLVAEAYRSLASAQCPFLGPPRKRLKQS

In one assay the parent is B1. The conditions noted are these: with brd4_human BRD4, O60885.
For MSRVPSPPPPAEMSSGPVAESWCYTQIKVVKFSYMWTINNFSFCREEMGEVIKSSTFSSGANDKLKWCLRVNPKGLDEESKDYLSLCLLLVSCPKSEVRAKFKFSILNAKGEETKAMESQRAYRFVQGKDWGFKKFIRRDFLLDEANGLLPDDKLTLFCEVSVVQDSVNISGQNTMNMVKVPECRLADELGGLWENSRFTDCCLCVAGQEFQAHKAILAARSPVFSAMFEHEMEESKKNRVEINDVEPEVFKEMMCFIYTGKAPNLDKMADDLLAAADKYALERLKVMCEDALCSNLSVENAAEILILADLHSADQLKTQAVDFINYHASDVLETSGWKSMVVSHPHLVAEAYRSLASAQCPFLGPPRKRLKQS [Y87C], the “effect of a mutation on the interaction” value is “disrupting interaction strength”.

The variants in the next assay derive from B1. The conditions noted are these: with ncoa3_human NCOA3, Q9Y6Q9.
Sequence of ncoa3_human NCOA3, Q9Y6Q9 (Q9Y6Q9 whole entry, looked up): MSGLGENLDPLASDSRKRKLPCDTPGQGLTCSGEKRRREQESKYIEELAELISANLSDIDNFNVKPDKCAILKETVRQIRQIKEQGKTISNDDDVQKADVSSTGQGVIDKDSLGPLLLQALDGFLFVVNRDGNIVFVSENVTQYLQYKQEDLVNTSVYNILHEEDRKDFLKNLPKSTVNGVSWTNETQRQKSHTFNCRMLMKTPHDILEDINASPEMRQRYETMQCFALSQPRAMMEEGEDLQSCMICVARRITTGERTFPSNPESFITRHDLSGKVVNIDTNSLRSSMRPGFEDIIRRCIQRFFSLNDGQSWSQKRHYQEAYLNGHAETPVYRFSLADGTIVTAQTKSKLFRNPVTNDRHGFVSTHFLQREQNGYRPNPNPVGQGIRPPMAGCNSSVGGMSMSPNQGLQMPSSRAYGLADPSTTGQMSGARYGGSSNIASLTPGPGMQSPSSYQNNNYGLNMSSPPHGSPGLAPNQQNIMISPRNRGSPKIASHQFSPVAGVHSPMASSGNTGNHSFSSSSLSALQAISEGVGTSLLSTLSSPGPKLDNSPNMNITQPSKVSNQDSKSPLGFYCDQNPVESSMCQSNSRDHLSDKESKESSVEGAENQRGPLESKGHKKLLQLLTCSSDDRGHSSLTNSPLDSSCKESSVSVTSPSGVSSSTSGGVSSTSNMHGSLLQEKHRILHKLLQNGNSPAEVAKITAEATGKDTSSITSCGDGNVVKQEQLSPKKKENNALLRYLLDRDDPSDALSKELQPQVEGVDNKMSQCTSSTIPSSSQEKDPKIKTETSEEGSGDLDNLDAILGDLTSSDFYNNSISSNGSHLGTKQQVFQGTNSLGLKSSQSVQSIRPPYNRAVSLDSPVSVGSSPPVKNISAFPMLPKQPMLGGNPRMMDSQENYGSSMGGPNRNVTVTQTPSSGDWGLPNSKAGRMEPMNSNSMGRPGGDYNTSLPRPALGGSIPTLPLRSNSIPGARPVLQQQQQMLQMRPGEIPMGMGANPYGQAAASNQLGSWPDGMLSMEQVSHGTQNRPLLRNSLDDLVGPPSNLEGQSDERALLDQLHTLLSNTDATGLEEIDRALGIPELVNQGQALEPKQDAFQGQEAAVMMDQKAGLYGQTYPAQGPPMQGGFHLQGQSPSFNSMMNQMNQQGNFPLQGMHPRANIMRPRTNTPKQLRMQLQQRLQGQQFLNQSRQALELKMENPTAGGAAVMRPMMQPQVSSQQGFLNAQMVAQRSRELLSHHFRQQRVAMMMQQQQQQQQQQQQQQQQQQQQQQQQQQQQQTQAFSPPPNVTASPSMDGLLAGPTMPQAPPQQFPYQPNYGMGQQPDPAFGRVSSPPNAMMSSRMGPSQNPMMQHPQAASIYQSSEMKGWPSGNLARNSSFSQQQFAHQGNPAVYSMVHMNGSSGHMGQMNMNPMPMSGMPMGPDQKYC
With MSRVPSPPPPAEMSSGPVAESWCYTQIKVVKFSYMWTINNFSFCREEMGEVIKSSTFSSGANDKLKWCLRVNPKGLDEESKDYLSLCLLLVSCPKSEVRAKFKFSILNAKGEETKAMESQRAYRFVQGKDWGFKKFIRRDFLLDEANGLLPDDKLTLFCEVSVVQDSVNISGQNTMNMVKVPECRLADELGGLWENSRFTDCCLCVAGQEFQAHKAILAARSPVFSAMFEHEMEESKKNRVEINDVEPEVFKEMMCFIYTGKAPNLDKMADDLLAAADKYALERLKVMCEDALCSNLSVENAAEILILADLHSADQLKTQAVDFINYHASDVLETSGWKSMVVSHPHLVAEAYRSLASAQCPFLGPPRKRLKQS [Y87C], the “effect of a mutation on the interaction” value is listed as “disrupting interaction strength”.

Variants of B1 are the subject of a further assay. Conditions: with jun_human JUN.
Turning to MSRVPSPPPPAEMSSGPVAESWCYTQIKVVKFSYMWTINNFSFCREEMGEVIKSSTFSSGANDKLKWCLRVNPKGLDEESKDYLSLCLLLVSCPKSEVRAKFKFSILNAKGEETKAMESQRAYRFVQGKDWGFKKFIRRDFLLDEANGLLPDDKLTLFCEVSVVQDSVNISGQNTMNMVKVPECRLADELGGLWENSRFTDCCLCVAGQEFQAHKAILAARSPVFSAMFEHEMEESKKNRVEINDVEPEVFKEMMCFIYTGKAPNLDKMADDLLAAADKYALERLKVMCEDALCSNLSVENAAEILILADLHSADQLKTQAVDFINYHASDVLETSGWKSMVVSHPHLVAEAYRSLASAQCPFLGPPRKRLKQS [Y87C], the “effect of a mutation on the interaction” value is on record as “disrupting interaction strength”.

In another assay the parent is B1. The conditions noted are these: with akt1_human AKT1, P31749.
Sequence of akt1_human AKT1, P31749 (P31749 whole entry): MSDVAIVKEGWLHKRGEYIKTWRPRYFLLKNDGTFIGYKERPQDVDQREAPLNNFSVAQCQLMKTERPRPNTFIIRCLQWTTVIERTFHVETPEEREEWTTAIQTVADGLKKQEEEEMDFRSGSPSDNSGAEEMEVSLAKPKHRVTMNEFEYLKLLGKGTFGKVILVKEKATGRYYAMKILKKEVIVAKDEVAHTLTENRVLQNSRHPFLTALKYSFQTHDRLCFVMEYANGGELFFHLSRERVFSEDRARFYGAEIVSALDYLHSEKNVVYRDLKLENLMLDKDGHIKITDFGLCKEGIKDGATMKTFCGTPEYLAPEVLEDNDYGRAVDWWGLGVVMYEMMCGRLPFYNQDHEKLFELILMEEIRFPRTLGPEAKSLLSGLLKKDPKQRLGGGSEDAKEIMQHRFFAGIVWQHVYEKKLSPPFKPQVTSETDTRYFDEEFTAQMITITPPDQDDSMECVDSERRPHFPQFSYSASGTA
Turning to MSRVPSPPPPAEMSSGPVAESWCYTQIKVVKFSYMWTINNFSFCREEMGEVIKSSTFSSGANDKLKWCLRVNPKGLDEESKDYLSLCLLLVSCPKSEVRAKFKFSILNAKGEETKAMESQRAYRFVQGKDWGFKKFIRRDFLLDEANGLLPDDKLTLFCEVSVVQDSVNISGQNTMNMVKVPECRLADELGGLWENSRFTDCCLCVAGQEFQAHKAILAARSPVFSAMFEHEMEESKKNRVEINDVEPEVFKEMMCFIYTGKAPNLDKMADDLLAAADKYALERLKVMCEDALCSNLSVENAAEILILADLHSADQLKTQAVDFINYHASDVLETSGWKSMVVSHPHLVAEAYRSLASAQCPFLGPPRKRLKQS [Y87C], the “effect of a mutation on the interaction” value is “with no effect”.

The next assay covers variants of B1. The conditions noted are these: with alk_human ALK.
For the variant MSRVPSPPPPAEMSSGPVAESWCYTQIKVVKFSYMWTINNFSFCREEMGEVIKSSTFSSGANDKLKWCLRVNPKGLDEESKDYLSLCLLLVSCPKSEVRAKFKFSILNAKGEETKAMESQRAYRFVQGKDWGFKKFIRRDFLLDEANGLLPDDKLTLFCEVSVVQDSVNISGQNTMNMVKVPECRLADELGGLWENSRFTDCCLCVAGQEFQAHKAILAARSPVFSAMFEHEMEESKKNRVEINDVEPEVFKEMMCFIYTGKAPNLDKMADDLLAAADKYALERLKVMCEDALCSNLSVENAAEILILADLHSADQLKTQAVDFINYHASDVLETSGWKSMVVSHPHLVAEAYRSLASAQCPFLGPPRKRLKQS [Y87C], the “effect of a mutation on the interaction” value is given as “with no effect”.

In another assay the parent is B1. Conditions: with aph1a_human APH1A.
MSRVPSPPPPAEMSSGPVAESWCYTQIKVVKFSYMWTINNFSFCREEMGEVIKSSTFSSGANDKLKWCLRVNPKGLDEESKDYLSLCLLLVSCPKSEVRAKFKFSILNAKGEETKAMESQRAYRFVQGKDWGFKKFIRRDFLLDEANGLLPDDKLTLFCEVSVVQDSVNISGQNTMNMVKVPECRLADELGGLWENSRFTDCCLCVAGQEFQAHKAILAARSPVFSAMFEHEMEESKKNRVEINDVEPEVFKEMMCFIYTGKAPNLDKMADDLLAAADKYALERLKVMCEDALCSNLSVENAAEILILADLHSADQLKTQAVDFINYHASDVLETSGWKSMVVSHPHLVAEAYRSLASAQCPFLGPPRKRLKQS [Y87C]: the “effect of a mutation on the interaction” value is listed as “with no effect”.

In another assay the parent is B1. The conditions noted are these: with arnt_human ARNT.
Take MSRVPSPPPPAEMSSGPVAESWCYTQIKVVKFSYMWTINNFSFCREEMGEVIKSSTFSSGANDKLKWCLRVNPKGLDEESKDYLSLCLLLVSCPKSEVRAKFKFSILNAKGEETKAMESQRAYRFVQGKDWGFKKFIRRDFLLDEANGLLPDDKLTLFCEVSVVQDSVNISGQNTMNMVKVPECRLADELGGLWENSRFTDCCLCVAGQEFQAHKAILAARSPVFSAMFEHEMEESKKNRVEINDVEPEVFKEMMCFIYTGKAPNLDKMADDLLAAADKYALERLKVMCEDALCSNLSVENAAEILILADLHSADQLKTQAVDFINYHASDVLETSGWKSMVVSHPHLVAEAYRSLASAQCPFLGPPRKRLKQS [Y87C]: the “effect of a mutation on the interaction” value was “with no effect”.

The variants in a further assay derive from B1. The conditions noted are these: with arc1a_human ARPC1A.
Regarding MSRVPSPPPPAEMSSGPVAESWCYTQIKVVKFSYMWTINNFSFCREEMGEVIKSSTFSSGANDKLKWCLRVNPKGLDEESKDYLSLCLLLVSCPKSEVRAKFKFSILNAKGEETKAMESQRAYRFVQGKDWGFKKFIRRDFLLDEANGLLPDDKLTLFCEVSVVQDSVNISGQNTMNMVKVPECRLADELGGLWENSRFTDCCLCVAGQEFQAHKAILAARSPVFSAMFEHEMEESKKNRVEINDVEPEVFKEMMCFIYTGKAPNLDKMADDLLAAADKYALERLKVMCEDALCSNLSVENAAEILILADLHSADQLKTQAVDFINYHASDVLETSGWKSMVVSHPHLVAEAYRSLASAQCPFLGPPRKRLKQS [Y87C], the “effect of a mutation on the interaction” value is “with no effect”.

The variants in a further assay derive from B1. The conditions noted are these: with asxl2_human ASXL2, Q76L83.
Sequence of asxl2_human ASXL2, Q76L83 (Q76L83 whole entry): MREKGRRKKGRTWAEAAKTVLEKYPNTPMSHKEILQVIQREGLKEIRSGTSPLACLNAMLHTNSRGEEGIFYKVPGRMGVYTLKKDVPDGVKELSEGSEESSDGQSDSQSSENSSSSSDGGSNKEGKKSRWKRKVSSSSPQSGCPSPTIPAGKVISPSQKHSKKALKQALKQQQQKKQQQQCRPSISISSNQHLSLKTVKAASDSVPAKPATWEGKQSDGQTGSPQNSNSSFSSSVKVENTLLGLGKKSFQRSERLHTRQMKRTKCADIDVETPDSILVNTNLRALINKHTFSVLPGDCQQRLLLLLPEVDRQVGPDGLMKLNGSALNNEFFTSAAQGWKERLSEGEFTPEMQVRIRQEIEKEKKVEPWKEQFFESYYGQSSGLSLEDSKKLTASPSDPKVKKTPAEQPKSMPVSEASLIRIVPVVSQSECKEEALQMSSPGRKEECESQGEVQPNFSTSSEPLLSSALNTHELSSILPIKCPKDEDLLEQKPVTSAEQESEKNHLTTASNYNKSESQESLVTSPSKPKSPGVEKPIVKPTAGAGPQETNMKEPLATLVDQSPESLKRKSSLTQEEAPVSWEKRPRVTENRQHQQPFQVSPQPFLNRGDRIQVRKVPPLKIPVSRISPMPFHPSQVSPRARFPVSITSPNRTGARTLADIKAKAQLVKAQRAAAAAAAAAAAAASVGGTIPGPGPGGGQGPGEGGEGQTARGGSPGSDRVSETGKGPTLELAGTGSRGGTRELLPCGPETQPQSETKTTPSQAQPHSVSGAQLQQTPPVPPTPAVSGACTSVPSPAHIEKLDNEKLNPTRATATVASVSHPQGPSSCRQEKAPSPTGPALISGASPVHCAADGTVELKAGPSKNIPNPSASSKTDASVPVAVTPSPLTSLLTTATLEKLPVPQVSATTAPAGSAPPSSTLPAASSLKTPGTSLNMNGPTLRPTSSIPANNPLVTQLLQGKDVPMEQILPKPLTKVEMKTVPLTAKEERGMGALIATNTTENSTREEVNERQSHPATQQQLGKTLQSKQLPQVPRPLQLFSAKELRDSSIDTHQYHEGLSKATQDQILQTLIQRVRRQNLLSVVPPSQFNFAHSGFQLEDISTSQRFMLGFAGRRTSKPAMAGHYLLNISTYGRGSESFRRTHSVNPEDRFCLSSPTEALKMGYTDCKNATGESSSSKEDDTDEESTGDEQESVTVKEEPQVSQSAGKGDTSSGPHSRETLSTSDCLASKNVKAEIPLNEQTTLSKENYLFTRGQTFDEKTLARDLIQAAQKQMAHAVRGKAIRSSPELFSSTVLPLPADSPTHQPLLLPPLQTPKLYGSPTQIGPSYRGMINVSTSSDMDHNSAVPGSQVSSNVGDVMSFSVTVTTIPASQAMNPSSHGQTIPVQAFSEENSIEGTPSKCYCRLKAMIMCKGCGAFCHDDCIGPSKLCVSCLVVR
For MSRVPSPPPPAEMSSGPVAESWCYTQIKVVKFSYMWTINNFSFCREEMGEVIKSSTFSSGANDKLKWCLRVNPKGLDEESKDYLSLCLLLVSCPKSEVRAKFKFSILNAKGEETKAMESQRAYRFVQGKDWGFKKFIRRDFLLDEANGLLPDDKLTLFCEVSVVQDSVNISGQNTMNMVKVPECRLADELGGLWENSRFTDCCLCVAGQEFQAHKAILAARSPVFSAMFEHEMEESKKNRVEINDVEPEVFKEMMCFIYTGKAPNLDKMADDLLAAADKYALERLKVMCEDALCSNLSVENAAEILILADLHSADQLKTQAVDFINYHASDVLETSGWKSMVVSHPHLVAEAYRSLASAQCPFLGPPRKRLKQS [Y87C], the “effect of a mutation on the interaction” value was “with no effect”.

In a further assay the parent is B1. The conditions noted are these: with bakor_human ATG14, Q6ZNE5.
Sequence of bakor_human ATG14, Q6ZNE5 (Q6ZNE5 whole entry): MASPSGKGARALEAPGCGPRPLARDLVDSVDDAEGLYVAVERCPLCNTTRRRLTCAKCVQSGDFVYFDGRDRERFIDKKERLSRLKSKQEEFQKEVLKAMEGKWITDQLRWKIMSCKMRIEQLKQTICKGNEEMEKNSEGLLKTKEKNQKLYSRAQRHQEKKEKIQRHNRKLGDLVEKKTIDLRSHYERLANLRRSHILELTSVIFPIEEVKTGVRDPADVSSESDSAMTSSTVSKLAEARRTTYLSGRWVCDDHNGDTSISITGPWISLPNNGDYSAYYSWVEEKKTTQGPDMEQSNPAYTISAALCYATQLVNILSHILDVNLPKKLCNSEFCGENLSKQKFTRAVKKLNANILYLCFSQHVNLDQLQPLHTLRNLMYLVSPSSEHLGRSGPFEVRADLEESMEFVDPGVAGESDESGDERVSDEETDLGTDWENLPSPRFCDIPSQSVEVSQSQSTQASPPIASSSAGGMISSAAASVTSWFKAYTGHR
As to MSRVPSPPPPAEMSSGPVAESWCYTQIKVVKFSYMWTINNFSFCREEMGEVIKSSTFSSGANDKLKWCLRVNPKGLDEESKDYLSLCLLLVSCPKSEVRAKFKFSILNAKGEETKAMESQRAYRFVQGKDWGFKKFIRRDFLLDEANGLLPDDKLTLFCEVSVVQDSVNISGQNTMNMVKVPECRLADELGGLWENSRFTDCCLCVAGQEFQAHKAILAARSPVFSAMFEHEMEESKKNRVEINDVEPEVFKEMMCFIYTGKAPNLDKMADDLLAAADKYALERLKVMCEDALCSNLSVENAAEILILADLHSADQLKTQAVDFINYHASDVLETSGWKSMVVSHPHLVAEAYRSLASAQCPFLGPPRKRLKQS [Y87C], the “effect of a mutation on the interaction” value is on record as “with no effect”.

Variants of B1 are the subject of another assay. The conditions noted are these: with atm_human ATM.
Turning to MSRVPSPPPPAEMSSGPVAESWCYTQIKVVKFSYMWTINNFSFCREEMGEVIKSSTFSSGANDKLKWCLRVNPKGLDEESKDYLSLCLLLVSCPKSEVRAKFKFSILNAKGEETKAMESQRAYRFVQGKDWGFKKFIRRDFLLDEANGLLPDDKLTLFCEVSVVQDSVNISGQNTMNMVKVPECRLADELGGLWENSRFTDCCLCVAGQEFQAHKAILAARSPVFSAMFEHEMEESKKNRVEINDVEPEVFKEMMCFIYTGKAPNLDKMADDLLAAADKYALERLKVMCEDALCSNLSVENAAEILILADLHSADQLKTQAVDFINYHASDVLETSGWKSMVVSHPHLVAEAYRSLASAQCPFLGPPRKRLKQS [Y87C], the “effect of a mutation on the interaction” value is recorded as “with no effect”.

The next assay covers variants of B1. Conditions: with atpb_human ATP5F1B.
As to MSRVPSPPPPAEMSSGPVAESWCYTQIKVVKFSYMWTINNFSFCREEMGEVIKSSTFSSGANDKLKWCLRVNPKGLDEESKDYLSLCLLLVSCPKSEVRAKFKFSILNAKGEETKAMESQRAYRFVQGKDWGFKKFIRRDFLLDEANGLLPDDKLTLFCEVSVVQDSVNISGQNTMNMVKVPECRLADELGGLWENSRFTDCCLCVAGQEFQAHKAILAARSPVFSAMFEHEMEESKKNRVEINDVEPEVFKEMMCFIYTGKAPNLDKMADDLLAAADKYALERLKVMCEDALCSNLSVENAAEILILADLHSADQLKTQAVDFINYHASDVLETSGWKSMVVSHPHLVAEAYRSLASAQCPFLGPPRKRLKQS [Y87C], the “effect of a mutation on the interaction” value is “with no effect”.

In a further assay the parent is B1. The conditions noted are these: with aurkb_human AURKB.
As to MSRVPSPPPPAEMSSGPVAESWCYTQIKVVKFSYMWTINNFSFCREEMGEVIKSSTFSSGANDKLKWCLRVNPKGLDEESKDYLSLCLLLVSCPKSEVRAKFKFSILNAKGEETKAMESQRAYRFVQGKDWGFKKFIRRDFLLDEANGLLPDDKLTLFCEVSVVQDSVNISGQNTMNMVKVPECRLADELGGLWENSRFTDCCLCVAGQEFQAHKAILAARSPVFSAMFEHEMEESKKNRVEINDVEPEVFKEMMCFIYTGKAPNLDKMADDLLAAADKYALERLKVMCEDALCSNLSVENAAEILILADLHSADQLKTQAVDFINYHASDVLETSGWKSMVVSHPHLVAEAYRSLASAQCPFLGPPRKRLKQS [Y87C], the “effect of a mutation on the interaction” value is recorded as “with no effect”.

Variants of B1 are the subject of the next assay. The conditions noted are these: with axin2_human AXIN2, Q9Y2T1.
Sequence of axin2_human AXIN2, Q9Y2T1 (Q9Y2T1 whole entry): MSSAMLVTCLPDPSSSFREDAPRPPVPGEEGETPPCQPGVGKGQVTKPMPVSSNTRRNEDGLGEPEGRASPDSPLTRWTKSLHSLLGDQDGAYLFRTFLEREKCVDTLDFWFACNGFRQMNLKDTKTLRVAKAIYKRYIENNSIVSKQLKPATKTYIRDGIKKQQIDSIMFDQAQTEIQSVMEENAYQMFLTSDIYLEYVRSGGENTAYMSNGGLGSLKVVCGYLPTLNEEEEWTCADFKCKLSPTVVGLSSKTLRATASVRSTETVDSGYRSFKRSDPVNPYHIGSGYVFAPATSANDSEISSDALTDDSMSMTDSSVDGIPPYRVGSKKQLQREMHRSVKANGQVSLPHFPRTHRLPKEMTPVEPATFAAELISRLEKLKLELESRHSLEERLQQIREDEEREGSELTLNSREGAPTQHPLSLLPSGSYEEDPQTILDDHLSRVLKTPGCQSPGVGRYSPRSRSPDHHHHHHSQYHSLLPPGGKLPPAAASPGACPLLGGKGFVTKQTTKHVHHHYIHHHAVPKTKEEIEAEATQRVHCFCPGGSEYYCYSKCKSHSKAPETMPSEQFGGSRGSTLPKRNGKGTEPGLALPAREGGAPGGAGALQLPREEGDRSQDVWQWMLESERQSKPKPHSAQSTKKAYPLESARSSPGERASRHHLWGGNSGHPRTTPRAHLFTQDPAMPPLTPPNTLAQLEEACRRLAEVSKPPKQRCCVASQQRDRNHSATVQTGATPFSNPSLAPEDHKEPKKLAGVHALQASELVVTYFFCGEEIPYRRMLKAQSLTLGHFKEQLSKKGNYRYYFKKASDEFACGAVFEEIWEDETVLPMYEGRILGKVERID
Turning to MSRVPSPPPPAEMSSGPVAESWCYTQIKVVKFSYMWTINNFSFCREEMGEVIKSSTFSSGANDKLKWCLRVNPKGLDEESKDYLSLCLLLVSCPKSEVRAKFKFSILNAKGEETKAMESQRAYRFVQGKDWGFKKFIRRDFLLDEANGLLPDDKLTLFCEVSVVQDSVNISGQNTMNMVKVPECRLADELGGLWENSRFTDCCLCVAGQEFQAHKAILAARSPVFSAMFEHEMEESKKNRVEINDVEPEVFKEMMCFIYTGKAPNLDKMADDLLAAADKYALERLKVMCEDALCSNLSVENAAEILILADLHSADQLKTQAVDFINYHASDVLETSGWKSMVVSHPHLVAEAYRSLASAQCPFLGPPRKRLKQS [Y87C], the “effect of a mutation on the interaction” value is reported as “with no effect”.

Variants of B1 are the subject of another assay. The conditions noted are these: with ufo_human AXL.
With MSRVPSPPPPAEMSSGPVAESWCYTQIKVVKFSYMWTINNFSFCREEMGEVIKSSTFSSGANDKLKWCLRVNPKGLDEESKDYLSLCLLLVSCPKSEVRAKFKFSILNAKGEETKAMESQRAYRFVQGKDWGFKKFIRRDFLLDEANGLLPDDKLTLFCEVSVVQDSVNISGQNTMNMVKVPECRLADELGGLWENSRFTDCCLCVAGQEFQAHKAILAARSPVFSAMFEHEMEESKKNRVEINDVEPEVFKEMMCFIYTGKAPNLDKMADDLLAAADKYALERLKVMCEDALCSNLSVENAAEILILADLHSADQLKTQAVDFINYHASDVLETSGWKSMVVSHPHLVAEAYRSLASAQCPFLGPPRKRLKQS [Y87C], the “effect of a mutation on the interaction” value is “with no effect”.

For the origin of these results see IntAct's records for PubMed 35512704.
